Laboratory results reported in the nanobody polyreactivity screen of Harvey et al. (2022).

Assay: yeast display, Sf9 membrane polyspecificity reagent, FACS + sequencing; frameworks hold sequencing errors
Method in brief: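 In a synthetic yeast display library (Saccharomyces cerevisiae BJ5465), nanobody expression was induced with galactose for 36–48 hours. FACS gates were set low and high (top ~1%) using anti-HA fluorescence for expression and streptavidin fluorescence for binding of the Sf9 membrane reagent. Each polyreactivity label is drawn from the gate of origin.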

Sequence | polyreactivity (PSR sort gate)
QVQLVESGGGLVQAGGSLRLSCAASGRTSRYAMGWSRQAPGKERELVAAITSSGGRTYYADSVKGRFTISRDNAKNTVYLQMNSLKPEDTAVYYCAAGYLLWRTWDYAAGHNYWGQGTQVTVSS | high polyreactivity
QVQLVESGGGLVQAGGSLRLSCAASGRIDVSNAMGWYRQAPGKERELVAAITRTGASTYYADSVKGRCTISRDNAKNNVYVQMNSLKPEDSAVYYSDDVWGWPYWVYRYDYWGQGTQVTVSS | high polyreactivity
QVQLVESGGGLVQAGGTLRLSCAASGSTSSNNAMGWYRQAPGKARELVADISTNGDSTSYADSVKGRFTISRDNAKNPVYLLMNSLKPEDTAVYYSAASTYVTYWEYDYWGQGTQVTVSS | low polyreactivity
QGQLVESGGGLVQAGGSLRLSCAASGSIFDLNAMGWYRQAPGKERELVAAISSGGGTYYADSVKGRFTISRDNAKNTVYLQMNCLKPEDTAVYYCNRVTRWTYNYWGQGTQVTVSS | high polyreactivity
QVQLVESGGGLVQAGGSLRLSSAASGRIFYHNTMGWYRQAPGKERELVAAIRSGSSTYYADSVKGRFTISRDNAKNTVYLQMNSLKPEDTAVYYCNARPWYSWGVDYDYWGQGTQVTVSS | low polyreactivity
QVQLVESVGGLVQAGGSLRLSCAASGSTFVRYTMGWYRQAPGKERALVAAISWNGGRTYYADSVKGRFTISRDNTKNTVYLQMNSLKPEDTAVYYCNAVRLVYTGNSDYGYWGQGTQVTVSS | high polyreactivity
QVQLVESGGGLVQAGGSLRLSCAASGFTFRYYTMGWYRQAPGKEREFVAAIRGGGSSTYYADSVKGRFTISRDNAKNTVYLQMTSLKPEDTAVYSCAAVTSQLYGYRYYYGGQGTQVTVSS | high polyreactivity
QVQLVESGGGLVQAGGSLRLSCAASGNIFYTNAMGWYRQAPGKERELVAAISRSGGRTYYADSVKGRFTISRDNAKNTVYLQMNSLKPEDTAVYYCAKQLYSPYKQRGYRLSPYEYWGQGTQVTVSS | low polyreactivity
QVQLVESGGGLVQAGGSLRLSCAASGRTFFRNAMGWYRQAPGKERELVAGMSSSGGRTYADSVKGRYTISRDNAKNTVYLQMNSLKPEDTAVYYCAVQSGWVSGLRYYYWGQGTQVTVSS | high polyreactivity
QGQLVESAGGLVQAGGSLRLSCAASGSILWHYAMGWYRQAHGKERELVAAISGSGSTIYADSVKGRFTISRDNAKNTVYLQLITLKPEDTADYYCARVHGTSESKYYYWGQGTQVTVSL | low polyreactivity
QDQLVDSGGGLVQAGGSLRLSCAASGRTIISYAMGRYRPAPGKERELVATITRDGRTNYADSVKGRFTISRDNAKNTVYLQMNSLNPEDTAVYYCNADSRYRYDYWGQGSQVTVSS | low polyreactivity
QVQLVESGGCLVQAGGSLRLSCAASGRTFYRYAMGWSRQAPGKERELVATISSRGTSTYYADSVKGRFTISRDNAKNTVYLQMNSLKPEDTAVYYCAVRGYAAGRHGYAYWGQGTQVTVSS | high polyreactivity
QVQLVESGGGLVQAGGSLRLSCAASGRIFGYNTMGWYRQAPGKERELVAAINSGGRTYYADSVKGRFTISRDNAKNTVYLQMNSLKPEDTAVYYCAKPGLYFATFKKYDYWGQGTQVTVSS | high polyreactivity
QVQLVESGGGLVQAGGSLRLSCAASGYTFSQNAMGWYRQAPGKEREVVAGITTRGTTTYYADSVKGRFTISRDNAKNTVYLQMNSLKPEDTPVYYCAADNSYTDNYWGQGTQVTVSS | low polyreactivity
QVQLVESGGGLVQAGGSLRLSCAASGIIFDSYAMGWYRQAPGKERELVAAISTSGGSTYYADSVKGRFTISRDNAKNTVYLQMNSLKPEDTEVYYCAARYAVSRYRFGFNYWGQGTQVTVSS | high polyreactivity
QVQLVESGGGLVQAGGSLRLSCADSGRIFRGNTMGWYRQAPGKERELVATINGRGGSTYYADSVKGRFTISRDNAKNTLYLQMNSLKPEDTAVYYCAARARTTRSATYDYWGQGTQVTVSS | high polyreactivity
QVQLVESGGGLVQAGGSLRLSCAASGRILDYNAMGWYRQAPGKERELVADISGSGDSTYYADSVKGRFTISRDNAKNTVYLQMNSLKPEDTAVYYCNRQTVRPHSRAGYDYWGQGTQVTVSS | low polyreactivity
QVQLVESGGGLVQAGGSLRLSCAASGSTFESNAMGWYRQAPGKERELVAAISRGGNTYYADSVKGRFTISRDNAKNTVYLQMNSLKPEDTAVYYCAADGAGWLDYGYWGQGTQVTVSS | low polyreactivity
QVQLVESGGGLVQAGGSRRLSCAASGSTFYPYSMGWYRQAPGKESELVAAITWSGGRTYYADSVKGRFTISRDNANNTVYLQMNSLKPEDTAVYYCAADRPDGWVDYWGQGTQVTVSS | low polyreactivity
QVQLVESGGGLVQAGRSLRLSCAASGITFQYYAMGGYRQAPGKERELVAAISSGGSTYYADSVKGRFTISRDNAKNTVYLQMNSLKPEDTAVYYCAAKRVFFGLNYDYWGQGTQVTVSS | high polyreactivity
QDQLVESGGGFVQAGGSRRLSCAASGRTLAYNAMGWYRPAPGKEWEFVAAITYSGGSTYYADSVKGRFTISRDNAKNTVYLQMYSLKPEDTAVYYCNAKRKRGYGSKFDYWGQGTQVTVSS | high polyreactivity
QVQLVESGGGLVQAGGSLRLSCAASGRTLYSYAMGWYRQAPGKERELVAAITSGGRTYYADSVKGRFTISRDNAKNTVYLQMNRLTPEDTAVYYCNDRRTFPRYDRNYESWGQGTQVTVSS | high polyreactivity

Sequence | polyreactivity (PSR sort gate)
QVQLVESGGGLVQAGGSLRLSCAASGNTFVPYAMGWYRQAPGKERELVAAITFSAGRTYYADSVKGRFTISRDNAKNTVYLQMNSLKPEDTAVYYCNVYWYNNYRGYYYWGQGTQVTVSS | high polyreactivity
QVQLVESGGGLVQAGGSLRLSCAASGRTFGKYAMGWDRQAPGKEMELVAAISTDVGDTYYADSVKGRFTISRDNAKNTVYLQMNSLKPEDTAVYYCAASFVYYGVDFVSWFWEGDYWGQGTQVTVSS | low polyreactivity
QVQLVQSGGGLVQAGGSLRLSCAASGSTFWMNAMGWYRQAPGKEREFVAAITVRGGSTYYADSVKGRFTISRDNAKNTVYLQMNSLKPEDTAVYYCNRPSSLAWPWTGSFSRYDYWGQGTQVTVSS | low polyreactivity
QVQLVESGGGLVQAGGSLRLSCAASGGIFIANAMGWYRQAPGKERELVAAISSSGGSTYYADSVKGRFTISRDNAKNTVYLQMNSLKPEDTAVYYCNKLLTRSYRTYGRYGYWGQGTQVTVSS | high polyreactivity
QVQLVESGGGLVQAGGSLRLSCAASGSISFLYTMGWYRQAPGKERELVAAITGSTASTYYADSVKGRFTISRDNAKNTVYLQMNSLKPEDTAVYYCAAYWYAEGYWVSRDYWGQGTQVTVSS | low polyreactivity
QVQDVESGGGLVQAGGSLRLSCAASGRTIDPNAMGWYRQAPGKERELVAAITRTGVRTYYADSVKGRFTISRDNAKNTVYLQMNSLKPEDTAVYYCNRYGARSNDYWGQATQVTVSS | low polyreactivity
QVQLVESGRGLVQAGGSLRLSCAASGSTFKDYPMGWYRQAPGKESELVARISTRVGSTYYPDSVKGRFTISRDNAKNTVYLQMNRLNPEDTAVFYCNARWWYPPYYYWGQGTQVSVSS | high polyreactivity
QVHLVESGGGLVQAGGSLRLICAASGSIFPRNAMGWYRQAPGKERELVARINSGGTTKYADSVKGRFTISRDNAKNTVFLQMNSLKPEDTAVYYCNADTYILDPLRKSYGYDYWGQGTQVTVSS | low polyreactivity
QVQLVESGGGLVQAGGSLLLSCAASGIIFSEYDMGWYRQAPGKESELVAAISKSGGRTYYADSVKVRFTISRDNAKNTGFLQMNSLKQEDTAVYYCAAGGRFRFTQYYKHYYWGQGTQVNVSS | high polyreactivity
QVQLVESGVGLVQAGGSLRLSCAASGRIFRPYAMGWYRQAPGKERELVAAITQSGGITSYADSVKGRFTISRDNAKNTVYLQMNSLKPEDTAVYYCATTSRYTRSHYDWYDYWGQGTQVTVSS | low polyreactivity
QVQLVESGGGLVQAGGSLRLSCAASGRIYRYYAMGWYRQPPAKERELVAAIRRGGSTSYADSVKGRFTISRDNAKNTVYLQMNSLKPEDTAVYYCAATQYYRGYDYWGQGTQVTVSS | high polyreactivity
QVQLVESGGGLVQAGGSLRFSCPASGSIFPAYARGWYRQAPGKERELVAAITRGGSTDYADSVKGRFTISRDNAKNTVYLQMNSLKPEDTAVYYCAKRGYYYYHYVSGKPEDYWGQGTQVTVSS | low polyreactivity
QVQLVETGGGLVQAGGSLRLSCAASGSIFGDNAMGWYRQAPGKERELVAAIDQSGDSTYYADSVKGRFTISRDNAKNTVYLQMNSLKPEDTAVYYCAAQSYDYWYDYDYWGQGTQVTVSS | high polyreactivity
QVQLVESGGGLVQAGGSLRLSCAASGRIIDNNAMGWYRPAPGKERQLVAAISWSGTSTYYADSVKGRFTISRDHAKNTVYLQMNSLKPEDTAVYYCNADSWFYTRFDYWGQGTQVTVSS | high polyreactivity
QVQLVESGGGLVQAGGSLRLSCAASGLTFSVYAMGWYRQAPGKERELVAAITSSGRTYYADSVKGRFTISRDNAKNTVYLQMNSLKPEDTAVYYCAAGYKSGPRRYYYWGQGTQVTVSS | high polyreactivity
QVQLVESRGGVVQAGGSLRLSSDDSGFTFYYYAMGWYRQAPGKERQLVAPITKSGGSTYYADSVKWRFTISRDNSKNSLYVKFNRLKPEDTAVYYCNKVTYSSDQYFGGDGYFWGQGTQVTVTS | high polyreactivity
QVQLVESGGGLVQAGGSLRLTCAASGRIFGTNAMGWYRQAPGKERELVADITSGGSTNYADSVKGRFTISRDNAKNTVYLLMNSLKPEDTAVYYCAADVIGDLRWYRDEYWGQGTQVTVSS | low polyreactivity
QVQLVESGGGLVKAGGSLRLSCAASGFTIVYYAMGWYIQAPGKERELVAAISATGGRTYYADSVKGRFTISRDNAKNTVYLQMNSLKPEDTAVYYCATRRRVLYGYDYWGQGTQVTVSS | high polyreactivity
QVQLQESGGGLVQAGGSLRLSCAASGTIFWLWAMGWYCQAPGKERELVASISSGGTTYHADSVKGRFTISRDNAKNTVYLQMNSLKPEDTAVYYSAAFYVATAKLGFWGQGSQVTVSS | low polyreactivity
QVQLVESGGGLVQAGGSLRLSCAASGFIFVVYAMGWYRQAPGTERDLVATISSGGGTYYADSVKGRFTISLDNAKNTVYLQMNSLKPEDTAVYYCAARRRRLYHFGGNNYCGQGTQVTVSS | high polyreactivity
QVQLVESGGGIVQAGGSLRLSCAASGRIFGRYAMGWYIQAPGKERELVAAISRSGGSTYYADSVKGRFTISRDNAKYTVYLQMNSLKPEDTAVYYCNAKYVRAGDTYDYWGQGTQVTVSS | high polyreactivity
